# Test results as given in PMC4169731 (Peptides, 2014).
# “And” between values parts separate entries of the source, which are not always exact repeats. Equal values may be shown once. Where a SMILES comes first, the peptide text is derived from it. The star is where a group is joined. 124I = [124I]*; 125I = [125I]*
# Assays:
# Format in all cases: in vivo, mouse
# AA amyloid deposits [1] = test: Longitudinal SPECT/CT imaging of ^125I-p5 in AA mice
# AA amyloid deposits [2] = test: Tissue biodistribution of ^124I radioactivity; conditions: 120 min pi of ^124I-p5; n = 3; more in AA mice
# [3] = tested on: amyloid-laden (AA) H2-L^d-HuIL-6 Tg BALB/c mice; test: Dynamic PET/CT imaging of ^124I-p5, time activity curves, amyloid-laden
# [4] = Dynamic PET/CT imaging of ^124I-p5 in mice; conditions: ^124I-p5 IV, dynamic PET
# [5] = Dynamic PET/CT imaging of ^124I-p5, time activity curves, healthy; conditions: WT mice, ^124I-p5 IV
# AA amyloid deposits [6] = conditions: ^125I-p5; 72 h pi; AA mice; microautoradiography
# [7] = AA mice, ^124I-p5 IV, dynamic PET 2 h, double exponential fit
# [8] = AA mice, ^124I-p5 IV, dynamic PET 2 h, single exponential fit
# [9] = higher in AA mice, biexponential decay, dynamic PET
# [10] = dynamic PET 2 h, double exponential fit
# [11] = dynamic PET 2 h, single exponential fit
molecule,measurement,setting,value
C[C@H](NC(=O)[C@H](CCC(N)=O)NC(=O)[C@H](C)NC(=O)[C@H](CCCCN)NC(=O)[C@H](CCC(N)=O)NC(=O)[C@H](C)NC(=O)[C@H](CCCCN)NC(=O)[C@H](CCC(N)=O)NC(=O)[C@H](C)NC(=O)[C@H](CCC(N)=O)NC(=O)[C@H](CCCCN)NC(=O)[C@H](C)NC(=O)[C@H](CCC(N)=O)NC(=O)[C@H](CCCCN)NC(=O)[C@H](C)NC(=O)[C@H](CCC(N)=O)NC(=O)[C@H](C)NC(=O)[C@H](CCCCN)NC(=O)[C@H](CCC(N)=O)NC(=O)[C@H](C)NC(=O)[C@H](CCCCN)NC(=O)[C@H](CO)NC(=O)[C@H](Cc1ccc(O)cc1)NC(=O)CNC(=O)CNC(=O)CN)C(=O)N[C@@H](CCCCN)C(=O)N[C@@H](CCC(N)=O)C(=O)N[C@@H](C)C(=O)N[C@@H](CCCCN)C(=O)N[C@@H](CCC(N)=O)C(=O)O [p5] (H-GGGYSKAQKAQAKQAKQAQKAQKAQAKQAKQ-OH),Time the peptide remains bound to amyloid in vivo,AA amyloid deposits [1]; mice,at least 3 days
same,Time the peptide remains stably bound to amyloid deposits and radioactive,"AA amyloid deposits [1]; mice, pi",at least 72 h
"^124I-p5: peptide p5 radiolabeled with ^124I on Tyr using Iodogen, for PET imaging (H-GGGY(124I)SKAQKAQAKQAKQAQKAQKAQAKQAKQ-OH)","Radioactivity (%ID/g) in liver, pancreas and spleen, AA mice compared to WT mice",AA amyloid deposits [2],~ 10 fold
same,Lag time (tlag) before accumulation of radioactivity in stomach,"[3]; AA mice, ^124I-p5 IV, dynamic PET",~ 8 min
same,"Kslow, liver","[3]; AA mice, ^124I-p5 IV, dynamic PET 2 h, double exponential association",0.17 ± 0.01 min⁻¹
same,"Kslow, blood (heart ROI)",[3]; [7],0.49 ± 0.04 min⁻¹
same,"T1/2 fast, blood",[3]; [7],0.49 min
same,"T1/2 fast, liver",[3]; [7],0.31 min
same,"Kfast, spleen","[3]; AA mice, ^124I-p5 IV, dynamic PET 2 h, single exponential association",0.04 ± 0.00 min⁻¹
same,"Kfast, kidney",[3]; [8],0.04 min⁻¹ and 0.04 ± 0.003 min⁻¹
same,"T1/2 fast, kidney",[3]; [8],16.62 min
same,"T1/2 fast, spleen",[3]; [8],15.62 min
same,"Blood pool Kfast (α component), AA mice relative to WT mice",[3]; [9],> 2 fold
same,"Blood pool Kslow (β), AA mice relative to WT mice",[3]; [9],> 2 fold
same,Lag time (tlag) of thyroid radioactivity,[4]; WT and AA not distinguished,~ 8 min
same,Radioactivity removed from the blood pool,[4]; by 5 min pi,~ 90%
same,Lag time (tlag) before accumulation of radioactivity in stomach,[5]; dynamic PET,~ 8 min
same,Time of peak activity in the kidneys (tmax),[5]; dynamic PET,~ 7 min
same,"T1/2 fast, liver",[5]; [10],0.70 min
same,"T1/2 slow, blood",[5]; [10],37.99 min
same,"T1/2 slow, liver",[5]; [10],20.82 min
same,"Kfast, kidney","[5]; dynamic PET 2 h, single exponential decay after peak",0.06 min⁻¹ and 0.06 ± 0.001 min⁻¹
same,"T1/2 fast, kidney",[5]; [11],10.96 min
same,"T1/2 fast, spleen",[5]; [11],11.19 min
same,"T1/2 fast, thyroid",[5]; [11],20.67 min
"^125I-p5: peptide p5 radioiodinated with ^125I using chloramine T, for SPECT imaging (H-GGGY(125I)SKAQKAQAKQAKQAQKAQKAQAKQAKQ-OH)","Loss of radioactivity from major amyloid organs (liver, spleen and pancreas)","AA amyloid deposits [1]; AA mice, ^125I-p5, 72 h pi, SPECT",essentially no loss of radioactivity
same,Time of retention in the liver and spleen,"AA amyloid deposits [1]; AA mice, ~5 μg ^125I-p5 (~150 μCi) IV, SPECT/CT at 2, 24, 48, 72 h pi",more than 72 h
same,Reactivity with healthy tissues,AA amyloid deposits [6],No significant reactivity
